Measured values taken from the supplement of paper PMC12764529.
± gives the half width of the 95% confidence interval.

assay: folding stability dG unfold from chymotrypsin proteolysis; higher = more stable
Outline: (§1)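 Bayesian fitting of sequencing counts gave K50 for each design. Unfolding free energy followed by setting this against a sequence-predicted unfolded-state K50 and a shared folded-state K50, either per protease or with trypsin and chymotrypsin combined. The designs, under 80 residues and lacking cysteine, were digested in a PA-tagged cDNA display format at 11 threefold-diluted protease concentrations and without protease, and only those with AlphaFold2 dimer inter-PAE above 15 were kept.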

Going from “SAGGSAGGSAGKKKLRLTLPGAEVEYDAATNELTIRLKAPPPPPKTTTKVETKTVLLPGKSAGGSAGGSAGG [r11_149_TrROS_Hall]” to “SAGGSAGGSNWVEIDIPHDDGRDIKITMWPDGYMQIEYPNGKPVYEIPVPPNMSIDEIAERILSAGGSAGGS [r12_990_TrROS]”, the “folding stability dG unfold” value falls from 1.2 ± 0.095 kcal/mol to 0.498 ± 0.067 kcal/mol.

“SPEIKIELVYDEETEELYLEIEIRFPESEEEAIEALKKLLEELGFEVVEIEEIEVEEDGTVRIRVRIRKKSA [r9_876_TrROS_Hall]” and “SAGGKIPPGMKLEIEDINIEFYNNGWIKITVKMTIWAPDGKTMTMTMTIVIPIRPPPPPPNDPENNESAGGS [r8_90_TrROS]” are within error of each other in “folding stability dG unfold” value: 4.47 ± 0.7 kcal/mol for the first, 4.77 ± 0.24 kcal/mol for the second.

Compared with “SAGGELIEKAIEEALENGEEVEIEVVLRDENGELYRIRIRVRRERLPDGEVKTEIEIEIERFPLPEESAGGS [r16_323_TrROS_Hall]”, “SAGGKKKITITIEEVEELENGPLVYRVTIEVDGKTYEILIEADSLEEAKAAAEKLAEELNVEVTIEPVSAGG [r13_750_TrROS_Hall]” is lower in “folding stability dG unfold” value: 4.66 ± 0.11 kcal/mol for the first, 4.22 ± 0.048 kcal/mol for the second.

Going from “SAIPINLPPGDKVKITFRNPDGSRMEIEFDPENGKWKVKMRPNDGKKQEQTIPAGNLDDLPPGVYSIEPVSA [r9_1110_TrROS]” to “SRTIENPDNGIKITVDRVPGGRYRVHIFNPGGKPIHEREIPDMPIPPGDTREIKIPIKGLPPGMYLMLEPWS [r1_263_TrROS]”, the “folding stability dG unfold” value falls from 1.78 ± 0.27 kcal/mol to 0.842 ± 0.13 kcal/mol.

Going from “SAGGMVEREFTLDGTRITITYVPSEGVILATFPDRTVTVPVPESLKDKSPEEVIELAKEFAKEYLESSAGGS [r16_215_JUSTAS]” to “SAGGSAGGSMTAEEIAEKFPGLPPEQIKNIPIERHPDGYMTVNIEHRGPNGNKQEQQVEIPVDSAGGSAGGS [r12_1050_TrROS]”, the “folding stability dG unfold” value falls from 3.08 ± 0.041 kcal/mol to 0.505 ± 0.037 kcal/mol.

Compared with “SAGGSAGGSKKKNKPAPPVLVVKVEIVKIELSDEELEAIKKNKEKIKEIYLIKIEVTLVEPEESAGGSAGGS [r12_196_TrROS_Hall]”, “SAGGSAGGSMTITVTKVDFPPGLYEGLTIEELRKLLGDENLPIKETPVTVTVTPEKLAALLLSSAGGSAGGS [r12_178_JUSTAS]” is lower in “folding stability dG unfold” value: 2.18 ± 0.062 kcal/mol for the first, 0.778 ± 0.08 kcal/mol for the second.

Going from “SAGGSAGGSAGVSFVVDALFVDPNTNEVYHGHIEFYDDGTAKITLTNQNGKTKTFTFPVLFSAGGSAGGSAG [r3_61_TrMRF]” to “SAGGMGLEELAKLSPEEIARRLAAEAKAAAAAAGTPDAAVTLEVTLEDKPIVVEVGADGTIRRVELGSAGGS [r16_431_JUSTAS]”, the “folding stability dG unfold” value falls from 3.25 ± 0.049 kcal/mol to 1.16 ± 0.024 kcal/mol.

Going from “SAGGMKVTVTEDGSSSKVTITIKDPKTGIEKTYTATATVLPDGTVVYTITYPDGSKKTIPSSELELSSAGGS [r16_154_JUSTAS]” to “SAMTTTETFEEGDYVYTVITTKIPSSLPPDSVVTIPVTTPLGAESEVVSEPGGTITVKVRLKKEDPELLSAG [r14_754_JUSTAS]”, the “folding stability dG unfold” value falls from 4.02 ± 0.051 kcal/mol to 0.14 ± 0.088 kcal/mol.

Going from “SAGGSALPPGQEVEITIMIMVMIYNPENGRMWMVMASVEIEIRVDPKNGKLEIKIKKISISIFPMDSAGGSA [r15_517_TrROS]” to “SAGGGIAEILEIREFEDGVEILILTDDLDDPEIIEELIDEIAEELGLPKEKIRAHIIPADIPPLPDEESAGG [r13_430_TrMRF]”, the “folding stability dG unfold” value falls from 5.8 ± 0.52 kcal/mol to 1.18 ± 0.1 kcal/mol.

First: SAGGSVKQIALRIARDMGYPNVKVEEIPIEKTPNGWVQIPITVEHPKDGKPIGPFQIHIRPGDPIVSAGGSA [r2_137_TrROS]
Second: SETVEIEIELPDGTKVTITVDKDGKVHITIEVPEDNPELLEKGSIEELAKKLAEELGLSEKDVEVTVLPPSA [r9_401_TrROS_Hall]
The “folding stability dG unfold” value of the first is lower: 0.602 ± 0.27 kcal/mol for the first, 2.45 ± 0.24 kcal/mol for the second.

For “SAGMTFEVRYPLPPGQTHKEAREEVKDMVESIAREFMPEGWKIEPKDIDVDPDKGWIEYKVDIEIPPGMSAG [r5_146_TrROS]”, the “folding stability dG unfold” value was 1.94 ± 0.12 kcal/mol.

assay: folding stability dG unfold (combined trypsin and chymotrypsin); higher = more stable
Outline: as §1

Compared with “SAGGSASMIFADDPAQAEAYVKPLFPNGPPFDIVELSEEEGKELVEKLKKEGKPYKVIVIKDPSKPSAGGSA [r15_567_JUSTAS]”, “SAGGSAGGSAGGPNHYVMATETIEFEFEIRTRNEDGKPQEIKIKFTLTVIRMFPLPPGDPSAGGSAGGSAGG [r7_926_TrROS]” is higher in “folding stability dG unfold” value: 0.341 ± 0.3 kcal/mol for the first, 4.73 ± 0.25 kcal/mol for the second.

First: SAGGSAGGSAGAPTVKLTFTVTRTETKTETLPDGTTKTETKTETRTVTLTLAPGETITVTSAGGSAGGSAGG [r11_174_TrROS_Hall]
Second: SAGSKTITLEFNFEELKVKVTVTYDPEGEPTVTVTTTIYAKGGEKLETKTTTVTASPDDPVVKAFLESSSAG [r5_964_JUSTAS]
The “folding stability dG unfold” value of the first is higher: 3.98 ± 0.11 kcal/mol for the first, 2.77 ± 0.074 kcal/mol for the second.

“SMNIVEIEVEEKIIGDTTTITIPIKVNGPAVSEEEIKKIVEDIFKKKGLKINIKIEKDPNSGVITITIIESA [r9_717_JUSTAS]” and “SAGGSVDVSYDPSTGVVTVTIPSPTGSIGEEEVERVARELKEKYPNVTVSFTPSPGPAVTVTITIPGGSAGG [r13_291_JUSTAS]” are within error of each other in “folding stability dG unfold” value: 2.33 ± 0.19 kcal/mol for the first, 2.08 ± 0.074 kcal/mol for the second.

Going from “SAGGSAMPLEELKKVTITLSFYNENGELVAEMTLEYDEETDVFTMTVKVRYNGKTYTVEMEFKLLPSAGGSA [r15_278_TrROS_Hall]” to “SAGGMIVIEKEEDGFYRITIRNKETGEEVEEIPISKEELEELLKEAEENMSLEEIAEKLGLEIEIEKVSAGG [r13_836_TrROS_Hall]”, the “folding stability dG unfold” value falls from 5.23 ± 0.32 kcal/mol to 1.27 ± 0.12 kcal/mol.

Compared with “SAGGSAGGSMKITINKWDPDNGNIMVTIQMPGQPVEIMIPWNNVDKLLEKLPFPGMKIDEIYPSAGGSAGGS [r12_23_TrROS]”, “SAGGSAKPKITITVTYDKETNTVTVTITFPDGTTLTITVEAETEEEAKKAAKKLVEELLKKLEELESAGGSA [r15_477_TrROS_Hall]” is higher in “folding stability dG unfold” value: 1.14 ± 0.23 kcal/mol for the first, 3.52 ± 0.23 kcal/mol for the second.
